Laboratory results reported in publication PMC10169808, “Two legume fatty acid amide hydrolase isoforms with distinct preferences for microbial- and plant-derived acylamides” (Scientific Reports, 2023).
Each block holds one molecule with its values, some of them ahead of it.

Legend:
[1] = biological target: Medicago truncatula fatty acid amide hydrolase 1 (MtFAAH1) (Medicago truncatula); assay: SEC; Superdex 200 Increase 10/300 GL; 50 mM Bis-Tris-Propane pH 9.0, 100 mM NaCl, 0.03% DDM; mass interpolated from Kav against standards, mean elution volume of six purifications, DDM micelle (about 70 kDa) taken into account
[2] = biological target: Medicago truncatula fatty acid amide hydrolase 2a (MtFAAH2a) (Medicago truncatula); assay: SEC; Superdex 200 Increase 10/300 GL; buffers at pH 7.5, 0.06% DDM; mass interpolated from Kav against standards, mean elution volume of six purifications, DDM micelle (about 70 kDa) taken into account
[3] = substrate: CCCCCCCCCCCC(=O)NCCO; assay: fluorescamine assay of released amine, Michaelis-Menten fit; type: biochemical, Medicago truncatula; conditions: 100 mM NaCl, 30 °C, apparent
[4] = substrate: CCCCC/C=C\C=C\C(O)CCCCCCCC(=O)NCCO; assay: as above; type: biochemical, Medicago truncatula; conditions: 100 mM NaCl, 30 °C, apparent
[5] = substrate: O=C(/C=C/c1ccc(O)cc1)NCCc1ccc(O)cc1; assay: as above; type: biochemical, Medicago truncatula; conditions: 100 mM NaCl, 30 °C, apparent
[6] = substrate: O=C(/C=C/c1ccc(O)cc1)N[C@H]1CCOC1=O; assay: as above; type: biochemical, Medicago truncatula; conditions: 100 mM NaCl, 30 °C, apparent
[7] = substrate: C/C=C/C=C\CC/C=C/C(=O)NCC(C)C; assay: as above; type: biochemical, Medicago truncatula; conditions: 100 mM NaCl, 30 °C, apparent
[8] = substrate: CCCCCCCCCC(=O)CC(=O)N[C@H]1CCOC1=O; assay: as above; type: biochemical, Medicago truncatula; conditions: 100 mM NaCl, 30 °C, apparent
[9] = substrate: CCCCCCCCCCCC(=O)CC(=O)N[C@H]1CCOC1=O; assay: as above; type: biochemical, Medicago truncatula; conditions: 100 mM NaCl, 30 °C, apparent
[10] = substrate: CCCCC/C=C\C/C=C\CCCCCCCC(=O)NCCO; assay: as above; type: biochemical, Medicago truncatula; conditions: 100 mM NaCl, 30 °C, apparent
[11] = biological target: the molecule itself; assay: SEC; AtFAAH run as reference for the MtFAAH calculations, in solution with detergent; its conditions are not told in the text (Supplementary Fig. S13)

stoichiometry N [1]: 4
Molecule: Medicago truncatula fatty acid amide hydrolase 1 (MtFAAH1) (enzyme)

stoichiometry N [2]: 4
Molecule: Medicago truncatula fatty acid amide hydrolase 2a (MtFAAH2a) (enzyme)

B1: MtFAAH1 (Medicago truncatula) (protein)
chain: MGKKRVMVPAKDVDLSSIKYEPEIVQAPHLTGFWFRFFVRLIEAPLIGPFLLTMLKKENKIDQLLRNTVFPEEPMFKPEYPPQEKEHSVVELDEDGRPEGRVESALNCLPHYDPAKLWENSSATFRYWKIRDYAYAYQSRKVTPSMVAESIISMIEENGIDKPPTPLLLSFDAAEVRKQAAASTQRFESGNPLSILDGIFIAIKDDIDCHPHPSTGGSTWMHEVRDVKKDAVCVSRLRSCGVIFIGKTNMHEFGMGTTGNNSNYGTARNPHAPDRYTGGSSSGPAAIVASGLCSAALGTDGGGSVRIPSSLCGVVGLKINYGRTSMEGSLCDSGTVEVIGPIASTVEDAMLVYAAMLGASPANRISMKPSTPCLPTLSSDDDTDALRSLRIGIYTPWFNNVHSTEVSDKCEDALNLLSKAHGCEVVEVVIPEIVEMRTAHLVSIGSECLSSLNPDIEDGKGVKLSYDTRTSLALFQSFTAADYVAAQCIRRRIMHYFMEIFKKVDVIVTPTTGMTAPRIPPSALKSGETDMPTTGYLMRFVVPANLLGLPAISVPVGYDKEGLPIGLQVIGRPWAEATILRVAAAVEKLCGESKRRPVTYYDVLGAN
notes: full-length CDS from A17 stem cDNA; C-terminal c-myc and 6xHis tags (pTrcHIS2), E. coli BL21(DE3); estimated homotetramer in DDM; catalytic Ser304
Km ([3]; pH 9, 25 mM HEPES, 0.03% DDM): 13.9 ± 3.6 µM
kcat ([3]; pH 9, 25 mM HEPES, 0.03% DDM): 0.86 s⁻¹
Km ([4]; pH 9, 25 mM HEPES, 0.03% DDM): 5.00 ± 0.4 µM
kcat ([4]; pH 9, 25 mM HEPES, 0.03% DDM): 1.25 s⁻¹
Km ([5]; pH 9, 25 mM HEPES, 0.03% DDM): 25.9 ± 7.0 µM
kcat ([5]; pH 9, 25 mM HEPES, 0.03% DDM): 0.51 s⁻¹
Km ([6]; pH 9, 25 mM HEPES, 0.03% DDM): 10.2 ± 2.5 µM
kcat ([6]; pH 9, 25 mM HEPES, 0.03% DDM): 0.33 s⁻¹
Km ([7]; pH 9, 25 mM HEPES, 0.03% DDM): 6.81 ± 2.6 µM
kcat ([7]; pH 9, 25 mM HEPES, 0.03% DDM): 0.32 s⁻¹
Km ([8]; pH 9, 25 mM HEPES, 0.03% DDM): 5.33 ± 0.6 µM
kcat ([8]; pH 9, 25 mM HEPES, 0.03% DDM): 0.87 s⁻¹
Km ([9]; pH 9, 25 mM HEPES, 0.03% DDM): 5.60 ± 0.6 µM
kcat ([9]; pH 9, 25 mM HEPES, 0.03% DDM): 0.79 s⁻¹
Km ([10]; pH 9, 25 mM HEPES, 0.03% DDM): 4.83 ± 0.6 µM
kcat ([10]; pH 9, 25 mM HEPES, 0.03% DDM): 1.05 s⁻¹

B2: Arabidopsis thaliana fatty acid amide hydrolase (AtFAAH) (enzyme)
chain: MGKYQVMKRASEVDLSTVKYKAETMKAPHLTGLSFKLFVNLLEAPLIGSLIVDYLKKDNGMTKIFRNTVIPEEPMFRPEFPSQEPEHDVVIVGEDESPIDRLETALKCLPQYDPSRSLHADPVSSFRYWKIRDYAYAYRSKLTTPLQVAKRIISIIEEFGYDKPPTPFLIRFDANEVIKQAEASTRRFEQGNPISVLDGIFVTIKDDIDCLPHPTNGGTTWLHEDRSVEKDSAVVSKLRSCGAILLGKANMHELGMGTTGNNSNYGTTRNPHDPKRYTGGSSSGSAAIVAAGLCSAALGTDGGGSVRIPSALCGITGLKTTYGRTDMTGSLCEGGTVEIIGPLASSLEDAFLVYAAILGSSSADRYNLKPSPPCFPKLLSHNGSNAIGSLRLGKYTKWFNDVSSSDISDKCEDILKLLSNNHGCKVVEIVVPELEEMRAAHVISIGSPTLSSLTPYCEAGKNSKLSYDTRTSFAIFRSFSASDYIAAQCLRRRLMEYHLNIFKDVDVIVTPTTGMTAPVIPPDALKNGETNIQVTTDLMRFVLAANLLGFPAISVPVGYDKEGLPIGLQIMGRPWAEATVLGLAAAVEELAPVTKKPAIFYDILNTN
notes: AtFAAH, fatty acid amide hydrolase (a FAAH1 enzyme), Arabidopsis thaliana; also called A. thaliana FAAH; AtFAAH1; source: recombinant, purified
stoichiometry N [11]: 2

B3: MtFAAH2a (Medicago truncatula) (protein)
chain: MGLFKSKRVVYKPVKDVNLGPDSTEFYLQANVKAPRMTGILVKIVAWLLECRIIGAFLLYILKGNNLIHKYITNADIEEPPLYVPLHHFEDHKEQEVKSLDLALTPPDKVQVAIDCLPTTLQRPINGTKPSFNRWTIMDYFRAYSSGDITPHMVAERFIAAVDESSKPTLQMGFFINYNVEDILRQANESTLRYQKGEPISVLDGVPVAIKDEIDCLPYPTTGGTKWLHKQRPCTDDACCIKRLRLCGAVLVGKTNMHELGAGTSGINPHYGATRNPHNASRIAGGSSSGSAAVVSAGLCPVALGVDGGGSVRMPAALCGIVGLKPTFSRIPHSGVIPLNWTVGMVGILAGTVEDSLITYAAISGEIPSRQPSSIPAKINLPLLPLTKSISKIKLAKYGKWFDDCSDDVRICCSGALNKLQGHYGWKIVDVTIPEIEVMRLAHYSTIGSECNTSLDYFQDKNLADFGWDARVALKIYGSFSSMEYIKAQKIRNRQLQFHKKIFSEADIIVSPTTGVTAYPIQDDALKTGELDYVNGAALIRYSIAGNFLGLPAVTVPVGYDKLGLPIGLQFIGRPWAEATLIHLAFAMQTICLSEYRKPAIFYDLLRTN
notes: full-length synthesized CDS (GENEWIZ) subcloned in pTrcHIS2, C-terminal c-myc and 6xHis tags, E. coli; estimated homotetramer in DDM; catalytic Ser311
Km ([3]; pH 7.5, 25 mM HEPES, 0.06% DDM): 13.8 ± 1.7 µM
kcat ([3]; pH 7.5, 25 mM HEPES, 0.06% DDM): 1.26 s⁻¹
Km ([4]; pH 7.5, 25 mM HEPES, 0.06% DDM): 18.7 ± 2.9 µM
kcat ([4]; pH 7.5, 25 mM HEPES, 0.06% DDM): 0.35 s⁻¹
Km ([5]; pH 7.5, 25 mM HEPES, 0.06% DDM): 10.8 ± 1.1 µM
kcat ([5]; pH 7.5, 25 mM HEPES, 0.06% DDM): 1.51 s⁻¹
Km ([6]; pH 7.5, 25 mM HEPES, 0.06% DDM): 13.8 ± 1.9 µM
kcat ([6]; pH 7.5, 25 mM HEPES, 0.06% DDM): 1.64 s⁻¹
Km ([7]; pH 7.5, 25 mM HEPES, 0.06% DDM): 7.64 ± 1.5 µM
kcat ([7]; pH 7.5, 25 mM HEPES, 0.06% DDM): 1.28 s⁻¹
Km ([8]; pH 7.5, 25 mM HEPES, 0.06% DDM): 13.2 ± 2.1 µM
kcat ([8]; pH 7.5, 25 mM HEPES, 0.06% DDM): 1.11 s⁻¹
Km ([9]; pH 7.5, 25 mM HEPES, 0.06% DDM): 14.6 ± 1.7 µM
kcat ([9]; pH 7.5, 25 mM HEPES, 0.06% DDM): 0.96 s⁻¹
Km ([10]; pH 7.5, 25 mM HEPES, 0.06% DDM): 15.1 ± 2.9 µM
kcat ([10]; pH 7.5, 25 mM HEPES, 0.06% DDM): 0.60 s⁻¹
